Tests used:
[1] = target: SpyCatcher-CBU1910 fusion protein (Coxiella burnetii); assay: SpyTag/SpyCatcher conjugation, SDS-PAGE
[2] = target: SpyCatcher-H5 hemagglutinin construct (avian influenza A); assay: SpyTag/SpyCatcher reaction, SDS-PAGE

B1: CpG-ST-E2 nanoparticle (ST-E2 with CpG 1826 conjugated in the internal cavity) (other)
chain: MAHIVMVDAYKPTKGSGTAGGGSGSLSVPGPAAAEEKAAPAAAKPATTEGEFPETREKMSGIRRAIAKAMVHSKHTAPHVTLMDEADVTKLVAHRKKFKAIAAEKGIKLTFLPYVVKALVSALREYPVLNTSIDDETEEIIQKHYYNIGIAADTDRGLLVPVIKHADRKPIFALAQEINELAEKARDGKLTPGEMKGASCTITNIGSAGGQWFTPVINHPEVAILGIGRIAEKPIVRCGEIVAAPMLALSLSFDHRMIDGATAQKALNHIKRLLSDPELLLMEA
B1: binds [1]; binds [2].

— US20250073334A1 (University of California, published 2025)
